Measured values: publication PMC8330776

Target: SARS-CoV-2 S trimer (SARS-CoV-2) (UniProt P0DTC2)
Assay: SPR

Substance | Kd [nM] | koff [s⁻¹] | kon [M⁻¹ s⁻¹]
lectin from Galanthus nivalis (snowdrop) (natural protein) | 1.53 | 0.00121 | 792000
phytohaemagglutinin PHA-M from Phaseolus vulgaris (red kidney bean) (natural protein) | 2480 | 0.0196 | 7890
Lentil lectin derived from Lens culinaris (natural protein) | 8.67 | 0.000919 | 106000
erythroagglutinin PHA-E from Phaseolus vulgaris (red kidney bean) (from UniProt P05088 22-275) (natural protein) | 160 | 0.00331 | 20700
phytohaemagglutinin PHA-P from Phaseolus vulgaris (red kidney bean) (natural protein) | 32.5 | 0.00501 | 154000
lectin from Datura stramonium (jimson weed, thorn apple) (natural protein) | 0.823 | 0.00144 | 1.75e+06
succinyl-concanavalin A (natural protein) | 201000 | 0.00148 | 7.37
leucoagglutinin PHA-L from Phaseolus vulgaris (red kidney bean) (from UniProt P05087 21-272) (natural protein) | 37.6 | 0.00262 | 69700
sambucus sieboldiana lectin (natural protein) | 31.5 | 0.000886 | 28100
